# Data: article PMC7067740, “NDRG2 Protects the Brain from Excitotoxicity by Facilitating Interstitial Glutamate Uptake” (Translational Stroke Research, 2019)
# Target: endogenous Na+/K+-ATPase β1 (mouse (endogenous in cultured mouse …, UniProt P14094 1-304))
# Test: cell-based or functional assay
binder,measurement,value
"endogenous NDRG2 (N-myc downstream regulated gene 2) (natural protein, UniProt Q9QYG0 1-371, looked up) MAELQEVQITEEKPLLPGQTPETAKEAELAARILLDQGQTHSVETPYGSVTFTVYGTPKPKRPAIFTYHDVGLNYKSCFQPLFRFGDMQEIIQNFVRVHVDAPGMEEGAPVFPLGYQYPSLDQLADMIPCILQYLNFSTIIGVGVGAGAYILSRYALNHPDTVEGLVLINIDPNAKGWMDWAAHKLTGLTSSIPDMILGHLFSQEELSGNSELIQKYRGIIQHAPNLENIELYWNSYNNRRDLNFERGGETTLKCPVMLVVGDQAPHEDAVVECNSKLDPTQTSFLKMADSGGQPQLTQPGKLTEAFKYFLQGMGYMASSCMTRLSRSRTASLTSAASIDGSRSRSRTLSQSSESGTLPSGPPGHTMEVSC","half-life of endogenous Na+/K+-ATPase β1 in astrocytes after TAT-Ctrl treatment, with 100 μM emetine, immunoblot",1.83 h
same,"half-life of endogenous Na+/K+-ATPase β1 in astrocytes after TAT-β1(244–263) treatment, with 100 μM emetine, immunoblot",1.08 h
